From patent publication US20150344583A1 come the findings set out here.

Assay [1] deals with human BCMA (huBCMA) on cells (human) (UniProt Q02223). As to the kind of experiment: FACS, hu BCMA. A general note: Flow cytometry measures light scatter and fluorescence of single cells or particles in a stream.
The target in assay [2] is TACI on transiently transfected cells (human) (UniProt O14836). Description: FACS, hu TACI.
The target in assay [3] is human BCMA (huBCMA) on cells (human) (UniProt Q02223). As to the kind of experiment: APRIL blocking.
The target in assay [4] is cynomolgus (Macaca fascicularis) BCMA on cells (cynomolgus (Macaca fascicularis)). Description: FACS, Cyno BCMA.
Sequence of cynomolgus (Macaca fascicularis) BCMA on cells (cynomolgus (Macaca fascicularis)) (Q02223 other isoform, or with tags, fused parts or gaps): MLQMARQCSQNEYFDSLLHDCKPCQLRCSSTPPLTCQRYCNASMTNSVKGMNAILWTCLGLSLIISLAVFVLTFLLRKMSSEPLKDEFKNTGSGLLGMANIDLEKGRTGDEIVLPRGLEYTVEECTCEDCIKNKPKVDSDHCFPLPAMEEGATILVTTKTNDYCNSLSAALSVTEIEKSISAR
The target is the same in assay [5]. Description: CynoBCMA O/N FACS.
Assay [6] has as its target recombinant soluble human BCMA (rhu BCMA), analyte of the Example 2 Biacore assay (human) (UniProt Q02223). As to the kind of experiment: SPR (BIAcore 3000), steady state fit, antibody captured, rhu BCMA as analyte. For orientation: SPR reads the build-up and loss of mass on a sensor chip optically.

Sequence of human BCMA (huBCMA) on cells (human) (Q02223 whole entry N81S): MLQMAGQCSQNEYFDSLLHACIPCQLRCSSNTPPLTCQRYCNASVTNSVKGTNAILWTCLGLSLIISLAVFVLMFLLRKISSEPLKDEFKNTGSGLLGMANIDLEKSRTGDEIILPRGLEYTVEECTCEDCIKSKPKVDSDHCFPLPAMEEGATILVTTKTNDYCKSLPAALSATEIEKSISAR
Sequence of recombinant soluble human BCMA (rhu BCMA), analyte of the Example 2 Biacore assay (human) (Q02223 1-54 limits assumed): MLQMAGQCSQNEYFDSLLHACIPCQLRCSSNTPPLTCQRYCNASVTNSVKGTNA
Sequence of TACI on transiently transfected cells (human) (O14836 whole entry): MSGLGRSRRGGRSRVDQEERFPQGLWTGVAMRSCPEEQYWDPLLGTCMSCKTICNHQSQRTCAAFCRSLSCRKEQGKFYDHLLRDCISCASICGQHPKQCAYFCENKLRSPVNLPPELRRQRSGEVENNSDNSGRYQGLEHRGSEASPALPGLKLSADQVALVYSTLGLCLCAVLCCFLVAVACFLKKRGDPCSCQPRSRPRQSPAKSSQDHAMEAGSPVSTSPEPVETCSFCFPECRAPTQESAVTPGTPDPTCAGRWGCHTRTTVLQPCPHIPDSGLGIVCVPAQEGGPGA

B1: 33C7 (antibody, from a related filing, V domains shown)
VH: EVQLLESGGALVQPGGSLRLSCAASGFTFSSYAMNWVRQAPGKGLEWVSAISVGGDTYYADSVKGRFTISRDNSKNTLYLHVNSLSAEDSAVYYCAKDQVTLVRGVWYYYGLDVWGQGTTVTVSS
VL: VIVLIQSPLSLPVTPGEPASISCRSSQSLLHSNGNNYLDWYLQKPGQSPHLLISLGSNRTSGVPDRFSGSGSGTDFTLKISRVEAEDVGFYYCMQALQPPRRFGQGTKLEIKR
Consider B1, for which the MFI in assay [1] is 132000 MFI; in assay [2], 1890 MFI; in assay [4] it was 238000 MFI; in assay [5], 109 MFI. In assay [3], this molecule showed a % Inhibition n=1 of 68%. The molecule also registered a % Inhibition n=2 in assay [3] of 88%. For the same molecule, the Avg. % Inhibition in assay [3] came out at 78%.

B2: 11F12 (antibody, from a related filing, IgG1, V domains shown)
VH: QVQLVESGGGVVQPGRSLRLSCAASGFTFSSYGLHWVRQAPGKGLEWVALISYDGSNKYYADSVKGRFTISRDNSKNTLYLQMNSLRAEDTAVYYCWYSSSWTPLDYWGQGTLVTVSS
VL: DIQMTQSPSSLSASVGDRVTITCRASQGIRNDLGWYQQKPGKAPKRLIYAASSLQSGVPSRFSGSGSGTEFTLTISSLQPEDFATYYCLQYYSYPLTFGGGTKVEIKR
Turning to B2, the Kd – broadly, the concentration at which binding is half-saturated – in assay [6] came to 36.1 nM.
